Among the data in the supplement of paper PMC10567573 are protein stability index values, retold here.

± gives the standard deviation.

The nature of the data set: protein stability index of a GFP-peptide fusion (GPS, HEK-293T) (PSI 1-6); higher = more stable. The note with it: c terminus: a fixed tail appended.
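Also: 24-mer peptide tiles fused after GFP, lentivirally expressed, FACS-sorted into six equal bins by GFP/DsRed ratio, decoded by Illumina sequencing, PSI is the read-weighted mean bin number.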

For LEFYRYYQQLKLEGPGEQETKLDL [SLC29A1], the protein stability index by setting is: (treatment: DMSO) 2.953 ± 0.027; (treatment: MLN4924 1 uM, 8 h) 3.11 ± 0.35.
Turning to LEHVRALIKKYSDHLENVSKLVES [TRIM55], the protein stability index is 3.02 ± 0.28 (treatment: DMSO) and 3.1 ± 0.17 (treatment: MLN4924 1 uM, 8 h).
The matching figures for LENAEVLELTVRRVQGVLRGRARE [HES6]: 3.81 ± 0.33 and 3.88 ± 0.19.
The matching figures for LEQTAREILTLLQGVHQGAGFQDI [TSN]: 3.07 ± 0.32 and 2.81 ± 0.38.
The matching figures for LESLQDGAAESPYSHLGGIDYKTT [RAB40A]: 4.44 ± 0.12 and 4.35 ± 0.11.
As to LFTDLFDRKGYMFDYEYDWIGKQL [CSNK1G3], the protein stability index by setting is: (treatment: DMSO) 2.24 ± 0.32; (treatment: MLN4924 1 uM, 8 h) 2.15 ± 0.3.
As for LGKESFYDTFHTVADMMYFCQMLA [HACD3], the protein stability index (treatment: DMSO) is 2.56 ± 0.92 and the protein stability index (treatment: MLN4924 1 uM, 8 h) came out at 3.15 ± 0.99.
On to LGLSRAQPVQSKPQKASAPAADPP [PDLIM7], for which the protein stability index by setting is: (treatment: DMSO) 4.71 ± 0.16; (treatment: MLN4924 1 uM, 8 h) 4.86 ± 0.37.
For the sequence LHASTVKRYGLGAHRGRLNIQAGI [CPXM2], the protein stability index (treatment: DMSO) was 2.52 ± 0.12 and the protein stability index (treatment: MLN4924 1 uM, 8 h) was found to be 2.51 ± 0.2.
For LHKQTASDLLDEKEIAKNLIQPIN [FEM1C], in that order: 3.38 ± 0.22 and 3.89 ± 0.18.
Consider LIETYTGLMSFIGNRNKLGYSLAR [TPRG1], for which the protein stability index (treatment: DMSO) turned out to be 2.31 ± 0.31 and the protein stability index (treatment: MLN4924 1 uM, 8 h) was determined as 2.21 ± 0.16.
As for LIFGLITCLTGVLGVGLGVEISRR [SPNS1], the protein stability index (treatment: DMSO) was determined as 2.66 ± 0.23 and the protein stability index (treatment: MLN4924 1 uM, 8 h) was determined as 3.13 ± 0.46.
As for LIILASGGPQALVNIMRTYTYEKL [CTNNB1], the protein stability index is, setting by setting: (treatment: DMSO) 3.04 ± 0.21; (treatment: MLN4924 1 uM, 8 h) 3.35 ± 0.76.
For LIKAKSQARLEEQQRLAHLEDKLR [LRRC45], the protein stability index (treatment: DMSO) was found to be 3.77 ± 0.25 and the protein stability index (treatment: MLN4924 1 uM, 8 h) is 3.96 ± 0.25.
Turning to LKDWEHSIALRNISLAKGPPGPKG [SCARA5], the protein stability index runs as follows: (treatment: DMSO) 3.68 ± 0.25; (treatment: MLN4924 1 uM, 8 h) 3.78 ± 0.36.
LKEELAYLKKNHEEEMNALRGQVG [KRT17]: the protein stability index stood at 4.01 ± 0.36 (treatment: DMSO) and 4.05 ± 0.66 (treatment: MLN4924 1 uM, 8 h).
For LKMSYSRGLIPVKRGPSSRSGGPP [RBMY1A1], in that order: 2.95 ± 0.25 and 3.16 ± 0.37.
On to LKNGSMGSPVNQQPKKNNVMARTR [FAM219A], for which the protein stability index stood at 3.96 ± 0.32 (treatment: DMSO) and 4.13 ± 0.27 (treatment: MLN4924 1 uM, 8 h).
The matching figures for LKPTFTKQQIANLDKQAKLSRAYD [USP39]: 3.61 ± 0.11 and 3.74 ± 0.16.
The matching figures for LKSLDKEISEAFTSTGFDRHTSPV [BCL2L13]: 3.98 ± 0.36 and 4.12 ± 0.44.
The matching figures for LLCPETYVWVPIEQCLPSLENSKY [ATE1]: 2.19 ± 0.15 and 2.03 ± 0.18.
Take LLDSMCPASTPSVLSSEQEFQMFP [ETS2]: the protein stability index by setting is: (treatment: DMSO) 3.94 ± 0.16; (treatment: MLN4924 1 uM, 8 h) 4.07 ± 0.28.
As to LLEQGAQVNRRSAKGNTALHDCAE [FEM1A], the protein stability index is, setting by setting: (treatment: DMSO) 4.81 ± 0.22; (treatment: MLN4924 1 uM, 8 h) 4.9 ± 0.23.
As for LLHVSSPNLASDSDLSRRSSSTMS [KCNA1], the protein stability index runs as follows: (treatment: DMSO) 4.26 ± 0.069; (treatment: MLN4924 1 uM, 8 h) 4.37 ± 0.055.
Consider LLKLEQNTCSVITTLKGHEGSVAC [WDFY1], for which the protein stability index reads like this: (treatment: DMSO) 2.84 ± 0.12; (treatment: MLN4924 1 uM, 8 h) 3.29 ± 0.32.
For LLLAHKADVNAQSSTGNTALTYAC [ANKRD17], in that order: 2.76 ± 0.18 and 2.57 ± 0.18.
With LLLGLKDREGYTSFWNDCISSGLR [GOLPH3], the protein stability index came to 2.43 ± 0.5 (treatment: DMSO) and 2.11 ± 0.23 (treatment: MLN4924 1 uM, 8 h).
The matching figures for LLPLQREPLYNWQATKASLKERFA [BTBD1]: 2.8 ± 0.22 and 2.82 ± 0.2.
As for LLRLSKHGPGHETPMTIPEFFRES [ACSBG2], the protein stability index was found to be 2.73 ± 0.1 (treatment: DMSO) and 3.06 ± 0.25 (treatment: MLN4924 1 uM, 8 h).
Regarding LLVGRYPFHDSDPSALFSKIRRGQ [TRIB1], the protein stability index runs as follows: (treatment: DMSO) 2.22 ± 0.23; (treatment: MLN4924 1 uM, 8 h) 2.46 ± 0.53.
For LLWSDPADNKIVSHLLVAEPEKIY [ESRRG], in that order: 2.36 ± 0.3 and 2.55 ± 0.16.
For the sequence LMISENNFLFRNAASTLTERPCYN [ANKRD40], the protein stability index is, setting by setting: (treatment: DMSO) 2.16 ± 0.31; (treatment: MLN4924 1 uM, 8 h) 2.36 ± 0.27.
The matching figures for LMMCFILPTLVPWYFWGETFQNSV [SCD]: 2.94 ± 0.69 and 3.24 ± 0.075.
The matching figures for LMVDFAQERQMLQALKFLPVPSAP [FSD1]: 2.21 ± 0.081 and 2.22 ± 0.3.
In the case of LNEEQTLQEVPTGLDSISHDSANC [ETS2], the protein stability index is, setting by setting: (treatment: DMSO) 5.54 ± 0.073; (treatment: MLN4924 1 uM, 8 h) 5.33 ± 0.18.
The matching figures for LNKCFIKVPREKDEPGKGGFWRID [FOXJ1]: 2.98 ± 0.2 and 2.98 ± 0.096.
In the case of LPAGAGAPKAGLEEAPAVTAGLKI [TNFSF13B], the protein stability index is 4.65 ± 0.3 (treatment: DMSO) and 4.65 ± 0.15 (treatment: MLN4924 1 uM, 8 h).
In the case of LPCNPCATTNASGNSCGPCGTSQK [KRT34], the protein stability index by setting is: (treatment: DMSO) 4.71 ± 0.12; (treatment: MLN4924 1 uM, 8 h) 4.86 ± 0.23.
The matching figures for LPEPSKRGPPHGWPKLCPCLRSGI [MYCL]: 2.04 ± 0.64 and 2.85 ± 0.054.
The matching figures for LPHPGLQVATSPDFDGKLKDIAGE [ATL3]: 4.91 ± 0.25 and 5.11 ± 0.26.
For LPKISDPNFVKDLEEDLYELFKKD [PI4K2A], in that order: 3.72 ± 0.24 and 3.88 ± 0.31.
LPNFAFSVPLAYFLLSQQTDLPEC [TCF25] had a protein stability index (treatment: DMSO) of 2.72 ± 1.8 and a protein stability index (treatment: MLN4924 1 uM, 8 h) of 2.94 ± 0.38.
As for LPSDGDHQVPTTAGNKAALLDQIR [WASL], the protein stability index stood at 4.73 ± 0.24 (treatment: DMSO) and 4.1 ± 0.84 (treatment: MLN4924 1 uM, 8 h).
For LQAALQVLELHHSKLDTTKALNLL [VPS39], in that order: 2.23 ± 0.27 and 2.29 ± 0.21.
In the case of LQDMLDGFIKKFVLCPECENPETD [EIF5], the protein stability index runs as follows: (treatment: DMSO) 3.19 ± 0.43; (treatment: MLN4924 1 uM, 8 h) 3.34 ± 0.12.
For LQGCSSIGLRLVLEYLYTANVTLS [KLHL14], in that order: 3.07 ± 0.45 and 2.93 ± 0.67.
For the sequence LQIYQYVPKDQRLQAIKAAIMLLP [DLC1], the protein stability index is, setting by setting: (treatment: DMSO) 2.64 ± 0.62; (treatment: MLN4924 1 uM, 8 h) 2.41 ± 0.58.
The matching figures for LQLNARSFMMGQGGEAAHHTRSPY [NEUROD6]: 2.99 ± 0.22 and 3.37 ± 0.32.
Take LQRNPKHELTAKYLNYYQGMLDVA [P3H4]: the protein stability index came to 2.3 ± 0.13 (treatment: DMSO) and 2.39 ± 0.41 (treatment: MLN4924 1 uM, 8 h).
For LRELGHAEHEITELTATFTKFDRD [PKD2L1], in that order: 4.48 ± 0.28 and 4.59 ± 0.25.
In turn, LRRSVEKYNSARADFEQKMLDSAL [FCHO1] came in with a protein stability index (treatment: DMSO) of 3.29 ± 0.54 and a protein stability index (treatment: MLN4924 1 uM, 8 h) of 3.35 ± 0.14.
The matching figures for LSQPVTYQAFRECTLETTVHASGW [BCL2L13]: 2.44 ± 0.46 and 2.48 ± 0.4.
LSSEMNTSTVNSAREELMESRMRI [LMNB1]: the protein stability index was 4.48 ± 0.29 (treatment: DMSO) and 4.27 ± 0.17 (treatment: MLN4924 1 uM, 8 h).
